Reference: patent US20180127487A1 (Sanofi, published 2018)
Where two headings read alike, the source gives them in different places.

T1: recombinant mouse FcRn (mouse, UniProt Q61559 22-297; P01887 21-119)
T1 sequence 1: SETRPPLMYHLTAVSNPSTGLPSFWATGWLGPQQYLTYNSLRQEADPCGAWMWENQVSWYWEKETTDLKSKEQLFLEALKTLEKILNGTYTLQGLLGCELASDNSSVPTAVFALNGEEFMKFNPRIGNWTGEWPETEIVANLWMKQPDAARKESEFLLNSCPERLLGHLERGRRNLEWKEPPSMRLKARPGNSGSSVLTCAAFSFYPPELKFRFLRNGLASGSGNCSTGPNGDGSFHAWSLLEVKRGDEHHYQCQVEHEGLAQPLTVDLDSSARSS
T1 sequence 2: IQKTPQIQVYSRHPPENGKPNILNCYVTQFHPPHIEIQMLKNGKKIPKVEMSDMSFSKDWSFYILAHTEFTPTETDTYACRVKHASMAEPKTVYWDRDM


Key:
[1] = biological target: T2, His-tagged CHIKV E2 LR2006 (Chikungunya virus strain LR2006, UniProt Q8JUX5 326-1220); experiment: SPR, His-tagged antigen captured
T2 construct: also called CHIKV pE2-E1 antigen derived from CHIKV strain LR2006; pE2-E1 target

[2] = biological target: T3, His-tagged CHIKV E2 SL15649 (Chikungunya virus strain SL15649, UniProt Q8JUX5 326-1220); experiment: SPR, His-tagged antigen captured
T3 construct: also called CHIKV pE2-E1 antigen derived from CHIKV strain SL15649; pE2-E1 target

recombinant human FcRn [3] = biological target: T4, recombinant human FcRn (human, UniProt P55899 24-297; P61769 21-119); experiment: SPR, human FcRn immobilised; relative to mAb2
T4 construct: also called human FcRn receptor
T4 sequence (P55899 24-297 limits assumed, chain 1 of 2): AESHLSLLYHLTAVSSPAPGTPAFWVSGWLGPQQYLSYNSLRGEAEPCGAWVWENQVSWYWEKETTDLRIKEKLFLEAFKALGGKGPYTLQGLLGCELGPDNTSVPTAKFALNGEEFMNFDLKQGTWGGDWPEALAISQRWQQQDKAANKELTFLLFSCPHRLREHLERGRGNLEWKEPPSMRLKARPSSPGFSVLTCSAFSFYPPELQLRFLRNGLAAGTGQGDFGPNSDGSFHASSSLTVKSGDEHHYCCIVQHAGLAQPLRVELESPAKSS
T4 sequence (P61769 21-119 limits assumed, chain 2 of 2): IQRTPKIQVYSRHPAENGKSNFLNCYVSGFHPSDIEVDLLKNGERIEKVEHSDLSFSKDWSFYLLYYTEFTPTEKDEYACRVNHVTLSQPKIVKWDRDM

recombinant mouse FcRn [4] = biological target: T1, recombinant mouse FcRn; experiment: SPR, mouse FcRn immobilised; relative to mAb2
recombinant human FcRn [5] = biological target: T4, recombinant human FcRn; experiment: SPR (Biacore T200), human FcRn immobilised on CM5 chip
recombinant mouse FcRn [6] = biological target: T1, recombinant mouse FcRn; experiment: SPR (Biacore T200), mouse FcRn immobilised on CM5 chip
Antigen (E2) [7] = biological target: Antigen (E2) (Chikungunya virus); experiment: SPR (Biacore T200), His-tagged antigen captured by anti-His antibody, 1:1 model
[8] = biological target: T5, Recombinant human HPC4-tagged FcγRIII-F158 (human, UniProt P08637 17-208); experiment: SPR (Biacore 3000), HPC4-tagged FcγRIII-F158 captured on anti-HPC4 CM5 chip, antibody injected 2 min, in duplicate; concentration (900, 300 or 100 nM in the methods) not printed on the sheet
T5 construct: also called FcγRIIIaF158; not shown: HPC4 tag
T5 sequence (P08637 17-208): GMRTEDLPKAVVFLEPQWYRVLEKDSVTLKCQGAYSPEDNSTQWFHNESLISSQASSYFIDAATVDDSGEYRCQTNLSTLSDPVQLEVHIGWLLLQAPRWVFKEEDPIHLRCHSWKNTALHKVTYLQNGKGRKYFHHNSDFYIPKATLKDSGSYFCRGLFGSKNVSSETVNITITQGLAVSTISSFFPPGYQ

[9] = biological target: T6, Recombinant human HPC4-tagged FcγRIIIa-V158 (human, UniProt P08637 17-208); experiment: SPR (Biacore 3000), HPC4-tagged FcγRIIIa-V158 captured on anti-HPC4 CM5 chip, antibody injected 2 min, in duplicate; concentration (900, 300 or 100 nM in the methods) not printed on the sheet
T6 construct: Valine at 158 is a polymorphism, named without an old residue; also called Val158; not shown: HPC4 tag
T6 sequence (P08637 17-208 F176V): as the sequence (P08637 17-208) above, with F160V counted along it

[10] = biological target: T2, His-tagged CHIKV E2 LR2006; experiment: SPR, His-tagged antigen captured (example 3, FIG. 5)
[11] = biological target: T3, His-tagged CHIKV E2 SL15649; experiment: as above
[12] = biological target: T7, CHIKV Caribbean strain, Asian lineage (envelope protein E2 on virus) (Chikungunya virus); experiment: cell-based or functional assay
[13] = biological target: T8, CHIKV La Reunion (LR) strain, ECSA lineage (envelope protein E2 on virus) (Chikungunya virus); experiment: cell-based or functional assay
[14] = biological target: T9, CHIKV 37997 strain, West African lineage (envelope protein E2 on virus) (Chikungunya virus); experiment: cell-based or functional assay
[15] = biological target: T7, CHIKV Caribbean strain, Asian lineage …; experiment: cell-based or functional assay; remark: listed apart in the source
[16] = biological target: T8, CHIKV La Reunion (LR) strain, ECSA …; experiment: cell-based or functional assay; remark: listed apart in the source
[17] = biological target: T9, CHIKV 37997 strain, West African …; experiment: cell-based or functional assay; remark: listed apart in the source
recombinant human FcRn [18] = biological target: T4, recombinant human FcRn; experiment: SPR, human FcRn immobilised; relative to mAb1
recombinant mouse FcRn [19] = biological target: T1, recombinant mouse FcRn; experiment: SPR, mouse FcRn immobilised; relative to mAb1
recombinant human FcRn [20] = biological target: T4, recombinant human FcRn; experiment: SPR (Biacore T200), human FcRn immobilised on CM5 chip; remark: listed apart in the source
recombinant mouse FcRn [21] = biological target: T1, recombinant mouse FcRn; experiment: SPR (Biacore T200), mouse FcRn immobilised on CM5 chip; remark: listed apart in the source
Antigen (E2) [22] = biological target: Antigen (E2) (Chikungunya virus); experiment: SPR (Biacore T200), His-tagged antigen captured by anti-His antibody, 1:1 model; remark: listed apart in the source
[23] = biological target: T5, Recombinant human HPC4-tagged …; experiment: SPR (Biacore 3000), HPC4-tagged FcγRIII-F158 captured on anti-HPC4 CM5 chip, antibody injected 2 min, in duplicate; concentration (900, 300 or 100 nM in the methods) not printed on the sheet; remark: listed apart in the source
[24] = biological target: T6, Recombinant human HPC4-tagged …; experiment: SPR (Biacore 3000), HPC4-tagged FcγRIIIa-V158 captured on anti-HPC4 CM5 chip, antibody injected 2 min, in duplicate; concentration (900, 300 or 100 nM in the methods) not printed on the sheet; remark: listed apart in the source

| Binder | Affinity Increase (fold) (recombinant human FcRn [3]) | Affinity Increase (fold) (recombinant mouse FcRn [4]) | Kd (recombinant human FcRn [5]) [nM] | Kd (recombinant mouse FcRn [6]) [nM] | Kd (Antigen (E2) [7]) [nM] | binding result [8] | binding result [9] | binding result [10] | binding result [11] | EC50, plaque reduction neutralization [12] [ng/mL] | EC50, plaque reduction neutralization [13] [ng/mL] | EC50, plaque reduction neutralization [14] [ng/mL] | In vitro neutralization - EC50 (ng/ml), plaque reduction assay on Vero cells [15] [ng/mL] | In vitro neutralization - EC50 (ng/ml), plaque reduction assay on Vero cells [16] [ng/mL] | In vitro neutralization - EC50 (ng/ml), plaque reduction assay on Vero cells [17] [ng/mL] | Affinity Increase (fold) (recombinant human FcRn [18]) | Affinity Increase (fold) (recombinant mouse FcRn [19]) | Kd (recombinant human FcRn [20]) [nM] | Kd (recombinant mouse FcRn [21]) [nM] | Kd (Antigen (E2) [22]) [nM] | further results |
| --- | --- | --- | --- | --- | --- | --- | --- | --- | --- | --- | --- | --- | --- | --- | --- | --- | --- | --- | --- | --- | --- |
| mAb9 (antibody, also called mAb2LS) heavy: not shown light: QAVVTQSPSSLPASVGDRVTITCRASQDIRNNLGWYQQKPGKAPERLIYGTSNLQSGVPSRFSGSGSGTEFTLTISSLQPEDFATYYCLQHNSYPPTFGRGTKVEIKRTVAAPSVFIFPPSDEQLKSGTASVVCLLNNFYPREAKVQWKVDNALQSGNSQESVTEQDSKDSTYSLSSTLTLSKADYEKHKVYACEVTHQGLSSPVTKSFNRGEC | 16.6 | 3 | 20 | 7.5 | 0.25 | binds | binds | – | – | – | – | – | – | – | – | – | – | – | – | – | binding result [1]: binds; binding result [2]: binds |
| mAb14 (antibody, also called mAb2N108QLS) heavy: not shown light: QAVVTQSPSSLPASVGDRVTITCRASQDIRNNLGWYQQKPGKAPERLIYGTSNLQSGVPSRFSGSGSGTEFTLTISSLQPEDFATYYCLQHNSYPPTFGRGTKVEIKRTVAAPSVFIFPPSDEQLKSGTASVVCLLNNFYPREAKVQWKVDNALQSGNSQESVTEQDSKDSTYSLSSTLTLSKADYEKHKVYACEVTHQGLSSPVTKSFNRGEC | 18.2 | 3.6 | 18 | 6.2 | 0.12 | binds | binds | binds | binds | – | – | – | – | – | – | – | – | – | – | – | – |
| mAb13 (antibody, also called mAb2N108QYTE) heavy: QVQLVQSGAEVKKPGASVKVSCKVSGYILSKLSVHWVRQAPGKGLEWMGGSEREDGETVYAQKFQGRISLTEDTSIETAYMELSSLSSEDTAVYYCATGGFWSMIGGQGVDYWGQGTLVTVSSASTKGPSVFPLAPSSKSTSGGTAALGCLVKDYFPEPVTVSWNSGALTSGVHTFPAVLQSSGLYSLSSVVTVPSSSLGTQTYICNVNHKPSNTKVDKKVEPKSCDKTHTCPPCPAPELLGGPSVFLFPPKPKDTLYITREPEVTCVVVDVSHEDPEVKFNWYVDGVEVHNAKTKPREEQYNSTYRVVSVLTVLHQDWLNGKEYKCKVSNKALPAPIEKTISKAKGQPREPQVYTLPPSRDELTKNQVSLTCLVKGFYPSDIAVEWESNGQPENNYKTTPPVLDSDGSFFLYSKLTVDKSRWQQGNVFSCSVMHEALHNHYTQKSLSLSPG light: QAVVTQSPSSLPASVGDRVTITCRASQDIRNNLGWYQQKPGKAPERLIYGTSNLQSGVPSRFSGSGSGTEFTLTISSLQPEDFATYYCLQHNSYPPTFGRGTKVEIKRTVAAPSVFIFPPSDEQLKSGTASVVCLLNNFYPREAKVQWKVDNALQSGNSQESVTEQDSKDSTYSLSSTLTLSKADYEKHKVYACEVTHQGLSSPVTKSFNRGEC | 13.7 | 13.7 | 24 | 1.6 | – | binds | binds | binds | binds | – | – | – | – | – | – | – | – | – | – | – | – |
| mAb1 (antibody, also called parent antibody mAb1) heavy: not shown light: QAVVTQPPSVSGAPGQRVTISCTGSSSNIGADYNVHWYQLLPGTAPKLLIYGNTNRPSGVPDRFSGSKSGTSASLAITGLQAEDEADYYCQSYDSSLSASVFGGGTKLTVLGQPKAAPSVTLFPPSSEELQANKATLVCLISDFYPGAVTVAWKADSSPVKAGVETTTPSKQSNNKYAASSYLSLTPEQWKSHRSYSCQVTHEGSTVEKTVAPTECS | – | – | – | – | – | – | – | – | – | < 10 | < 10 | < 10 | 7.6 | 3.9 | 4.8 | 1 | 1 | 348 | 20 | 0.13 | binding result [23]: binds; binding result [24]: binds |
| mAb7 (antibody, also called mAb1LS) heavy: not shown light: QAVVTQPPSVSGAPGQRVTISCTGSSSNIGADYNVHWYQLLPGTAPKLLIYGNTNRPSGVPDRFSGSKSGTSASLAITGLQAEDEADYYCQSYDSSLSASVFGGGTKLTVLGQPKAAPSVTLFPPSSEELQANKATLVCLISDFYPGAVTVAWKADSSPVKAGVETTTPSKQSNNKYAASSYLSLTPEQWKSHRSYSCQVTHEGSTVEKTVAPTECS | – | – | – | – | – | – | – | – | – | < 1 | < 1 | < 1 | 0.6 | 0.3 | 0.2 | 23.8 | 3.4 | 15 | 5.9 | 0.17 | binding result [23]: binds; binding result [24]: binds |
